Data published in patent US20250243286A1 (SIXPEAKS BIO, published 2025).

T1: human ActRIIB (human, UniProt Q13705 19-137, limits assumed)
T1 construct: antigen in MSD-SET; also called ACVR2B; ActR2B
T1 sequence: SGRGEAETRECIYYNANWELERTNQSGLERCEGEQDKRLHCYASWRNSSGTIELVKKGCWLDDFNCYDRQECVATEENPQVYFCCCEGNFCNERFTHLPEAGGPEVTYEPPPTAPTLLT


Target: T1, human ActRIIB;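 note: immunoglobulin held at a fixed level and mixed with serially diluted antigen overnight at 4 °C to equilibrium, then unbound antibody captured on antigen-coated plates and read by electrochemiluminescence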
Assay: MSD-SET

Kd [nM]	Binder
0.003	Ofaschlupfer, Human IgG1-PALALA-YTE (antibody, V domains shown, human IgG1 with PA-LALA (L234A/L235A/P329A) and YTE (M252Y/S254T/T256E), EU numbering) VH: QVQLVQSGAEVKKPGSSVKVSCKASGYTFTSSYINWVRQAPGQGLEWMGTINAVSGSTSYAQKFQGRVTITADTSTSTAYMELSSLRSEDTAVYYCARGGWFDYWGQGTLVTVSS VL: QSALTQPRSVSGSPGQSVTISCTGTSSDVGSKNYVNWYQQHPGKAPKLMIYGVSKRESGVPDRFSGSKSGNTASLTISGLQAEDEADYYCGTFAGGKYYGVFGGGTKLTVL

Target: ActRIIA and ActRIIB (on TGFB/SMAD SBE Reporter HEK293 cells) (human)
Assay: cell-based or functional assay

IC50, Activin SMAD RGA [nM]	IC50, Myostatin SMAD RGA [nM]	IC90, Activin SMAD RGA [nM]	IC90, Myostatin SMAD RGA [nM]	Binder
1.83	1.42	6.72	13.4	Antibody Mauldascha (antibody, V domains shown) VH: QVQLVQSGAEVKKPGSSVKVSCKASGYTFTSSYINWVRQAPGQGLEWMGTINAVSGSTSYAQKFQGRVTITADESTSTAYMELSSLRSEDTAVYYCARGGWFDYWGQGTLVTVSS VL: QSALTQPRSVSGSPGQSVTISCTGTSSDVGSYNYVNWYQQHPGKAPKLMIYGVSKRESGVPDRFSGSKSGNTASLTISGLQAEDEADYYCGTFAGGKYYGVFGGGTKLTVL
0.542	1.46	7.83	19	Antibody Zibebe (antibody, V domains shown) VH: QVQLVQSGAEVKKPGSSVKVSCKASGYKFTSSYINWVRQAPGQGLEWMGTINAVSGSTSYAQKFQGRVTITADESTSTAYMELSSLRSEDTAVYYCARGGWFDYWGQGTLVTVSS VL: QSALTQPRSVSGSPGQSVTISCTGTSSDVGSYNYVNWYQQHPGKAPKLMIYGVSKRESGVPDRFSGSKSGNTASLTISGLQAEDEADYYCGTFAGGKYYGVFGGGTKLTVL
	0.0497		10400	Antibody Krapfa (antibody, V domains shown) VH: QVQLVQSGAEVKKPGSSVKVSCKASGHKFTSSYINWVRQAPGQGLEWMGTINAVSGSTSYAQKFQGRVTITADTSTSTAYMELSSLRSEDTAVYYCARGGWFDYWGQGTLVTVSS VL: QSALTQPRSVSGSPGQSVTISCTGTSSDVGSKNYVNWYQQHPGKAPKLMIYGVSKRESGVPDRFSGSKSGNTASLTISGLQAEDEADYYCGTFAGGKYYGVFGGGTKLTVL
0.573	0.713	3.79	7.72	Antibody Metzelsupp (antibody, V domains shown) VH: QVQLVQSGAEVKKPGSSVKVSCKASGYTFTSSYINWVRQAPGQGLEWMGTINAVSGSTSYAQKFQGRVTITADTSTSTAYMELSSLRSEDTAVYYCARGGWFDYWGQGTLVTVSS VL: QSALTQPRSVSGSPGQSVTISCTGTSSDVGSFNYVNWYQQHPGKAPKLMIRGVSKRESGVPDRFSGSKSGNTASLTISGLQAEDEADYYCGTFAGGAYYGVFGGGTKLTVL
0.312	0.624	2.52	19.1	Antibody Schnitzbrot (antibody, V domains shown) VH: QVQLVQSGAEVKKPGSSVKVSCKASGYKFTSSYINWVRQAPGQGLEWMGTINAVSGSTSYAQKFQGRVTITADTSTSTAYMELSSLRSEDTAVYYCARGGWFDYWGQGTLVTVSS VL: QSALTQPRSVSGSPGQSVTISCTGTSSDVGSYNYVNWYQQHPGKAPKLMIYGVSKRDSGVPDRFSGSKSGNTASLTISGLQAEDEADYYCGTFAGGKYYGVFGGGTKLTVL
0.505	1.32	3.81	27.3	Antibody Nonnafürzla (antibody, V domains shown) VH: QVQLVQSGAEVKKPGSSVKVSCKASGYTFTSSYINWVRQAPGQGLEWMGTINAVSGSTSYAQKFQGRVTITADTSTSTAYMELSSLRSEDTAVYYCARGGWFDYWGQGTLVTVSS VL: QSALTQPRSVSGSPGQSVTISCTGTSSDVGSYNYVNWYQQHPGKAPKLMIYGVSKRDSGVPDRFSGSKSGNTASLTISGLQAEDEADYYCGTFAGGKYYGVFGGGTKLTVL
0.299	2.84	4.92	48.4	Antibody Peitscheschdegga (antibody, V domains shown) VH: QVQLVQSGAEVKKPGSSVKVSCKASGYKFTSSYINWVRQAPGQGLEWMGTINAVSGSTSYAQKFQGRVTITADTSTSTAYMELSSLRSEDTAVYYCARGGWFDYWGQGTLVTVSS VL: QSALTQPRSVSGSPGQSVTISCTGTSSDVGSKNYVNWYQQHPGKAPKLMIHGVSKRESGVPDRFSGSKSGNTASLTISGLQAEDEADYYCGTFAGGKYYGVFGGGTKLTVL
0.668	1.31	5.11	18.2	Antibody Rauchfloisch (antibody, V domains shown) VH: QVQLVQSGAEVKKPGSSVKVSCKASGYTFTSSYINWVRQAPGQGLEWMGTINAVSGSTSYAQKFQGRVTITADTSTSTAYMELSSLRSEDTAVYYCARGGWFDYWGQGTLVTVSS VL: QSALTQPRSVSGSPGQSVTISCTGTSSDVGSRNYVNWYQQHPGKAPKLMIYGVSKRESGVPDRFSGSKSGNTASLTISGLQAEDEADYYCGTFAGGDYYGVFGGGTKLTVL
0.338	0.473	4.74	18.2	Antibody Seela (antibody, V domains shown) VH: QVQLVQSGAEVKKPGSSVKVSCKASGYKFTSSYINWVRQAPGQGLEWMGTINAVSGSTSYAQKFQGRVTITADTSTSTAYMELSSLRSEDTAVYYCARGGWFDYWGQGTLVTVSS VL: QSALTQPRSVSGSPGQSVTISCTGTSSDVGSKNYVNWYQQHPGKAPKHMIYGVSKRESGVPDRFSGSKSGNTASLTISGLQAEDEADYYCGTFAGGKYYGVFGGGTKLTVL
0.304	0.516	4.37	23.4	Antibody Hegemark (antibody, V domains shown) VH: QVQLVQSGAEVKKPGSSVKVSCKASGYKFTSSYINWVRQAPGQGLEWMGTINAVSGSTSYAQKFQGRVTITADTSTSTAYMELSSLRSEDTAVYYCARGGWFDYWGQGTLVTVSS VL: QSALTQPRSVSGSPGQSVTISCTGTSSDVGSKNYVNWYQQHPGKAPKLMIYGVSKRHSGVPDRFSGSKSGNTASLTISGLQAEDEADYYCGTFAGGKYYGVFGGGTKLTVL
0.253	0.25	3.96	14.8	Antibody Wiebela (antibody, V domains shown) VH: QVQLVQSGAEVKKPGSSVKVSCKASGYKFTSSYINWVRQAPGQGLEWMGTINAVSGSTSYAQKFQGRVTITADTSTSTAYMELSSLRSEDTAVYYCARGGWFDYWGQGTLVTVSS VL: QSALTQPRSVSGSPGQSVTISCTGTSSDVGSKNYVNWYQQHPGKAPKLMIYGVSKRESGVPDRFSGSKSGNTASLTISGLQAEDEADYYCGTFAGGKYYGVFGGGTKLTVL
0.361	0.96	3.06	16.8	Antibody Oierspätzla (antibody, V domains shown) VH: QVQLVQSGAEVKKPGSSVKVSCKASGYTFTSSYINWVRQAPGQGLEWMGTINPVSGSTSYAQKFQGRVTITADTSTSTAYMELSSLRSEDTAVYYCARGGWFDYWGQGTLVTVSS VL: QSALTQPRSVSGSPGQSVTISCTGTSSDVGSYNYVNWYQQHPGKAPKLMIYGVSKRESGVPDRFSGSKSGNTASLTISGLQAEDEADYYCGTFAGGAYYGVFGGGTKLTVL
